Measured values from patent publication US4133804A, “Polypeptide possessing thymic activity” (Institut National de la Sante et de la Recherche Medicale …, priority 1976, dated 1979).
Values after ≈ are worked out from the molar mass of the structure shown. Non-standard residues stand in square brackets, D forms with d. No end group written: not given here. pGlu = O=C1CC[C@@H](C(=O)O)N1

Key:
isoelectric point = assay type: physicochemical; conditions: given as pH
Text: The polypeptide hormone of this invention has an isoelectric point (pI) at pH 7.5 ± 0.1. Lack of affinity to activated charcoal indicates the absence of aromatic amino acids. Elution of the polypeptide with the void volume when chromatographed on Sephadex G-10 and retention on Sephadex G-15, G-25 and G-50 indicates a molecular weight greater than 700 and less than 3,000. Ultrafiltration through Amicon membranes indicates a molecular weight of […] to 10,000. No significant retention of the polypeptide is observed on CF-50, PM-30 and PM-10 membranes which have molecular cut-offs of 50,000; 30,000 and 10,000 respectively. Conversely no significant activity is found in UM2 and UM0.5 filtrates which have molecular weight cut-offs of 1,000 and 500 respectively. The polypeptide has the property that it binds to carboxymethyl cellulose at pH lower than 7.0 and to DEAE cellulose at a pH higher than 9.0. The polypeptide bound on carboxymethyl cellulose can be eluted with 0.12M NaCl.

[1] = test system: spleen rosette forming cells (RFC); test: cells; conditions: Mus musculus, read-out: AZ minimal concentration inhibiting 50 percent spleen rosette forming cells
Experimental: At the end of the incubation, 12 × 10^6 sheep red blood cells (SRBC) are added to the cells in the test sample. The cells in the sample are centrifuged for 6 minutes at 200 g. and carefully and gently resuspended by rotation on a roller (10 cm. diameter) at low speed (10 rev./min.). RFC are counted in a haematocytometer. In the absence of thymic activity, the number of RFC is 1210/10^6 cells ± 120 (standard deviation, SD). In the presence of thymic activity, the RFC level is lowered to 200 to 400/10^6 cells.

IC50 [1] [µg/mL] | Compound | isoelectric point (pI) (isoelectric point) | isoelectric point (pI) (isoelectric point; listed as thymic factor)
– | pyroglutamyl-Ala-Lys-Ser-Gln-Gly-Gly-Ser-Asn ([pGlu]AKSQGGSN) [polypeptide hormone, polypeptide hormone isolated from porcine blood] | 7.5 ± 0.1 | ~7.5
1 (≈ 3.61 µM) | Cn1cnc([N+](=O)[O-])c1Sc1ncnc2nc[nH]c12 [AZ, azathioprine] | – | –
